# Laboratory results reported in patent US20050203007A1 (REGENTS OF THE UNIVERSITY OF MICHIGAN, published 2005).
# Biological target: T1, secreted, soluble furin (human, UniProt P09958 108-715, limits assumed)
# T1 construct: Secreted, soluble construct; also called human furin
# Experiment: affinity resin, eglin immobilized on Reacti-Gel 6X
# Protocol: Resins were synthesized by immobilizing purified M4R1-eglin and R4R1-eglin onto Reacti-Gel 6X (Pierce) using the manufacturer's protocol.
# The resins were then used to test binding and elution of furin from these resins. […] Enzyme was eluted with 20 mM NaMES (pH 6.0) with approximately 90% yield. Furin binding capacity to the R4R1-eglin Resin was 10-fold higher relative to the M4R1-eglin Resin, but furin was not eluted by dropping pH. Instead, furin bound to the R4R1-eglin column was eluted with buffer containing 2 mM EDTA. 5 mM CaCl₂ was added to restore activity and 85% of the furin activity was recovered. (Unit definition: Release of 1 pmol of AMC/min in a reaction containing […] Boc-Arg-Val-Arg-Arg-MCA, 1 mM CaCl₂ and 20 mM NaMES (pH 7.0) at 37° C.
# T1 sequence (P09958 108-715 limits assumed): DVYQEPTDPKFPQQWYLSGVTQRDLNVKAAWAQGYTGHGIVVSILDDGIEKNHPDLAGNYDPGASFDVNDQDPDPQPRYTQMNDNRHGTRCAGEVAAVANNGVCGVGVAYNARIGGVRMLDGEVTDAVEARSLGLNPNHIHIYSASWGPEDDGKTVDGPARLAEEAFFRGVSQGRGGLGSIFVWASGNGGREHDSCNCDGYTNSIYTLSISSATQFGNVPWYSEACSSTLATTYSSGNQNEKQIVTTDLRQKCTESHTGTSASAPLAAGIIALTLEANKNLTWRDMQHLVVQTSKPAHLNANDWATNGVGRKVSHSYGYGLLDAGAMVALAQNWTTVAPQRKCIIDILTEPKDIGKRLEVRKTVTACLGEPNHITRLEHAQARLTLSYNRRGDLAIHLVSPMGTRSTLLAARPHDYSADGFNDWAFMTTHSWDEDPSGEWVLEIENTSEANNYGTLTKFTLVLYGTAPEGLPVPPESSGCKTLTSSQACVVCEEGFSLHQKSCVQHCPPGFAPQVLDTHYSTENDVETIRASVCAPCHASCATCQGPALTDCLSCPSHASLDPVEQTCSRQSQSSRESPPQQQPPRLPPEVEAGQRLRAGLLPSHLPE
binder,measurement,value
"R4R1-eglin (designed binder, N-terminal Met removed; also called Tyr49-R4R1-; D33Y49) SMGSELKSFPEVVGKTVDQAREYFTLHYPQYDVYFLPEGSRVTRDLRYNRVRVFYNPGTNVVNHVPHVG",furin binding capacity of the resin relative to the M4R1-eglin Resin,10 fold
